6 molecules from patent publication US20060188440A1 (FOX CHASE CANCER CENTER, published 2006) can be followed below.

The term Kd denotes the concentration at which binding is half-saturated.

The target of assay [1] is T1, MISIIR-Fc ECD fusion protein (human, UniProt Q16671 18-149).
T1 construct: extracellular domain; Two orientations were made (ECD 5' or 3' of Fc); The secretion signal from the vector is not part of the secreted protein; also called MISIIR-Fc fusion protein; MISIIR ECD; not shown: tobacco etch virus cleavage site between MISIIR and Fc; human IgG1 Fc domain; C-terminal c-myc tag and 6xHis tag from the pSecTag2/Hygro vector
The assay can be described thus: assay not named in the sentence (ELISA / SPR of Example 1).

Assay [2] has as its target T1, MISIIR-Fc ECD fusion protein. Briefly: SPR (BIAcore 1000), MISIIR-Fc ECD on CM5 chip (600 RU), serially diluted scFv. As for the experimental part:
(§1) Surface plasmon resonance (SPR) technology was used to determine the binding of the anti-MISIIR molecules to MISIIR ECD. The SPR response reflects a change in the mass concentration as molecules bind or dissociate from an antigen immobilized on a sensor chip. These studies were performed on a BIAcore 1000 instrument. The MISIIR-Fc ECD fusion protein target antigen was coated on a CM5 chip at a concentration of 5,000 resonance units (RU). The anti-MISIIR antibody molecules were then flowed over the chip and the difference in the response units (RU) between the start point and the end was determined. A negative control protein (Fc) was coated on a chip at 4,800 RU and was used to rule out binding to the Fc portion of the MISIIR-Fc fusion protein. The association and dissociation rates, and the affinity of each molecule for MISIIR ECD were determined by passing serially diluted samples over an MISIIR-Fc ECD coated chip with a lower concentration of target antigen (600 RU) as per the BIAcore manufacturer's instructions. The evaluation of the data was done using BIAEvaluation 3.0 software.
Background: Surface plasmon resonance follows binding to a sensor surface in real time, without labels.

Assay [3] has as its target T2, MISIIR expressed on IGROV-1 cells (UniProt Q16671 18-573, limits assumed).
T2 construct: whole, on cells; also called MIS type II receptor
T2 sequence (looked up): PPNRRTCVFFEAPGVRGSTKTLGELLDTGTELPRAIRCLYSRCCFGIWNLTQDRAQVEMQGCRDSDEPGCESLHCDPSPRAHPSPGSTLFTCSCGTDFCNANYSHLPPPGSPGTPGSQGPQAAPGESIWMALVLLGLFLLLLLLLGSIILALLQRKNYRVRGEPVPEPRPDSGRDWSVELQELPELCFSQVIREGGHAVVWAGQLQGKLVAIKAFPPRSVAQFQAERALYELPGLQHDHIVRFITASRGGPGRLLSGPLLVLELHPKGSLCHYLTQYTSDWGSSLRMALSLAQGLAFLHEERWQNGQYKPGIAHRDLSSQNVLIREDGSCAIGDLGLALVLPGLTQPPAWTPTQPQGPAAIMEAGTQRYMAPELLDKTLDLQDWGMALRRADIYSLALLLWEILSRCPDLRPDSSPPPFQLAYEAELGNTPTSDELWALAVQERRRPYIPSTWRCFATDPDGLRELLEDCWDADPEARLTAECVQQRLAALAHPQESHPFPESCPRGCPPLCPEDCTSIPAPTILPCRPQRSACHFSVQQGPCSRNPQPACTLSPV
The assay can be described thus: flow cytometry (FACS) on IGROV-1 cells, detection with fluorescein-conjugated goat anti-human IgG; concentration not given. The procedure: The binding of the antibodies was also tested in a standard fluorescence-activated cell sorter (FACS) assay.
For orientation: Flow cytometry measures light scatter and fluorescence of single cells or particles in a stream.

Assay [4] addresses T1, MISIIR-Fc ECD fusion protein. The assay can be described thus: SPR (BIAcore 1000), chip coated with MISIIR (MISIIR-Fc ECD fusion protein), scFv-Fc flowed over; analyte concentration not given; time unit not given. As for the experimental part: as §1

B1: scFv antibody molecule of clone #29 (scFv)
scFv: MAQVQLVQSGGGLVQPGGSLRLSCAASGFTVSSNYMSWVRQAPGKGLEWVSAISGSGGSTYYADSVKGRFTISRDNSKNTLYLQMNSLRAEDTAVYYCATRPSRGSSGWYGGDYWGQGTLVTVSSGGGGSGGGGSGGGGSSYELTQPPSTSGTPGQRVTISCSGSTSNIATNNVNWYQFLPGTAPKLLMYRNDQRPAGVPDRFSGSKSGTSASLAISGLQPEDEADYYCAAWDDSLGGEVFGTGTKVNVLGQPKAAPSAA
On to B1, for which, in assay [1], the binding result is “binds”.

B2: anti-MISIIR scFv of clone #7 (scFv)
scFv: MAQVQLVQSGTEVKRPGASVKISCRATGYTFSDYGISWMRQAPGQGLEWMGWISAYNGNTNYAQKLQGRVTMTTDTSTSTAYMELRSLRYDDTAVYYCARDGRRGSGIYWGVYYYNGMDVWGQGTTVTVSSGGGGSGGGGSGGGGSQPVLTQPPSASGTPGQRVTISCSGSRSNIGRNTVNWYQQVPGMAPKLLIYSNNQRPSGVPDRFSGSKSGTSASLAISGLQSEDEADYYCAAWDDSLNGVVFGGGTKLTVLGQPKAAP
notes: Expressed from pCYN (pUC119mychis) with myc and His tags
B2 registered a dissociation constant Kd in assay [2] of 300 nM.

B3: M9 scFv antibody molecule (scFv)
scFv: MAQVQLVQSGAEVKKPGASVKVSCKASGYTFTSYDINWVRQATGQGLEWMGWMNPNSGNTGYAQKFQGRVTMTRNTSTNTAYMELTSLTSEDTAVYYCARGSPSPMNVWGQGTTVTVSSGGGGSGGGGSGGGGSQPVLTQPHSVSESPGKTVTISCTRSSGSIANDYVQWFQQRPGSAPTIVIYEDYRRPSGVPDRFSGSIDSSSNSASLTISGLKTEDEADYYCQSYDSSNPYVVFGGGTKLTVLGQPKAAPSAAA
Consider B3, for which, in assay [1], the binding result is given as “binds”.

B4: anti-MISIIR scFv of clone #17 (scFv)
scFv: MAQVTLKESGPTLVKPTQTLTLTCTFSGFSLTTSGVGVGWIRQAPGKAPEWLALIDWDDDKYYSTSLKTRLTISKDTSKNQVVLTMTNMDPVDTATYYCARDSYYGSGSHFDFWGQGTLVTVSSGGGGSGGGGSGGGGSSYELTQPPSVSVSPGQTATITCSGHDLRNKYAHWYQQKPGQSPVLVVYQDAKRPSGIPERFSGSNSGNTATLTISGTQAMDEADYYCQTWDRSTVVFGGGTKLTVLGQPKAAPSAA
notes: Expressed from pCYN (pUC119mychis) in E. coli and purified by IMAC; It carries C-terminal myc and His tags
Regarding B4, in assay [2], the equilibrium dissociation constant (Kd) was determined as 90 nM.

B5: scFv-Fc of clone #7 (Fc fusion)
scFv: QVQLVQSGTEVKRPGASVKISCRATGYTFSDYGISWMRQAPGQGLEWMGWISAYNGNTNYAQKLQGRVTMTTDTSTSTAYMELRSLRYDDTAVYYCARDGRRGSGIYWGVYYYNGMDVWGQGTTVTVSSGGGGSGGGGSGGGGSQPVLTQPPSASGTPGQRVTISCSGSRSNIGRNTVNWYQQVPGMAPKLLIYSNNQRPSGVPDRFSGSKSGTSASLAISGLQSEDEADYYCAAWDDSLNGVVFGGGTKLTVL
notes: Bivalent fusion secreted from mammalian cells; The F105 VH / pelB leader is not part of the secreted protein; Copies '2' follows from 'bivalent'; also called sFv-IgG fusion protein; not shown: Human IgG1 hinge-CH2-CH3 of the hinge stuffer vector, and the junction to it
In the case of B5, the binding result in assay [3] and in assay [4] was “binds” throughout.

B6: GY4 scFv antibody molecule (scFv)
scFv: MAQITLKESGPTLVKPTQTLTLTCTVSGFSLSNARMGVSWIRQPPGKALEWLALIYRDNDKRYNPSLKSRLTITKDTSKNQVVLTMSNMDPVDTATYYCAHSLVVPAANPFDYWGQGTLVTVSSSASGAELGGGGSGGGGSGGGGSTSQAVLTQPSSLSASPGASASLTCTLRSGINVGTYRIYWYQQKPGSPPQYLLRYKSDSDKQKGSGVPSRFSGSKDASANAGILLISGLQSEDEADYYCMIWHTSAYVFGTGTKVTVLGSS
Consider B6, for which the binding result in assay [1] is given as “binds”.
